Reference: patent US20190119357A1, “MESSENGER RIBONUCLEIC ACIDS FOR THE PRODUCTION OF INTRACELLULAR BINDING POLYPEPTIDES AND METHODS OF USE THEREOF” (ModernaTX, Inc., priority 2015, published 2019)
“Also recorded” adds a separate entry of the source.

B1: SQT-Bad-BH3: mRNA (SEQ ID NO: 51, FLAG) encoding SQT scaffold with Bad BH3 domain in N-terminus (nucleic acid)
chain: ATGATCCCAAGAAACCTGTGGGCTGCACAACGCTACGGAAGAGAACTGCGCCGGATGAGCGACGAATTTGTGGACTCGTTCAAGAAGGGGGGACTCTCAGAAGCGAAGCCTGCCACCCCCGAAATCCAGGAAATCGTCGACAAGGTCAAGCCGCAGCTTGAGGAAAAGACCAACGAGACTTACGGAAAACTGGAGGCCGTGCAGTATAAGACCCAAGTGTTGGCCTCCACCAACTACTACATTAAGGTCCGCGCCGGCGATAACAAGTACATGCACCTGAAGGTGTTCAATGGTCCTCCGGGACAGAACGCGGACAGGGTGCTGACTGGCTACCAAGTGGACAAGAACAAGGACGACGAGCTGACGGGCTTCGACTACAAGGATGATGATGACAAA
modifications: FLAG tag; Synthetic SQT-BAD-BH3 mRNA sequence with FLAG epitope tag
B2: Bcl-xL del.C24 BH3 Trap.cFLAG: Bcl-2-like trap mRNA, SEQ ID NO: 83, FLAG tag (nucleic acid)
chain: ATGTCCCAGAGCAACAGGGAACTCGTAGTCGATTTCTTGTCCTACAAGCTCAGTCAGAAGGGCTACTCTTGGTCCCAATTTTCCGACGTGGAAGAAAATCGGACAGAAGCCCCTGAGGGAACCGAGAGTGAGATGGAGACCCCGTCTGCAATCAACGGGAACCCTTCTTGGCACTTGGCCGACAGTCCCGCTGTGAATGGCGCCACAGGTCACAGTTCATCACTCGACGCTAGAGAAGTTATACCCATGGCAGCAGTCAAGCAAGCTCTGCGGGAGGCCGGCGACGAGTTCGAACTTCGGTACCGCCGAGCTTTTTCTGACCTGACTAGTCAGCTGCATATTACTCCGGGCACTGCGTACCAGTCGTTCGAACAGGTGGTTAATGAACTATTTCGAGACGGCGTGAATTGGGGCAGAATTGTAGCCTTTTTCTCCTTTGGAGGTGCACTGTGTGTCGAGAGCGTCGATAAGGAAATGCAGGTGTTGGTGAGCCGTATCGCGGCCTGGATGGCCACGTATCTGAACGACCATTTGGAACCATGGATCCAAGAAAACGGGGGTTGGGATACTTTCGTGGAGTTATATGGCAACAATGCTGCAGCGGAAAGTCGCAAGGGCCAGGAACGAGACTATAAAGATGACGACGATAAA
modifications: FLAG tag; Synthetic Bcl-xL del.C24 mRNA sequence with FLAG epitope tag
B3: Bcl-w (C29S/A128E) BH3 Trap.n9V5: Bcl-2-like trap mRNA, SEQ ID NO: 81, V5 tag (nucleic acid)
chain: ATGATTCCCAATCCGCTCCTCGGGCTTGACGCTACACCAGCCAGTGCACCAGACACGAGGGCGCTGGTTGCCGATTTCGTGGGATACAAGCTCAGGCAAAAAGGGTACGTAAGCGGTGCCGGGCCCGGGGAGGGACCGGCTGCCGATCCACTCCACCAGGCTATGAGGGCAGCTGGGGACGAATTCGAAACACGCTTTCGGCGGACTTTCTCCGACCTTGCCGCACAGCTACACGTCACTCCCGGGAGCGCTCAGCAGCGCTTCACGCAGGTCTCAGACGAATTGTTCCAAGGCGGCCCTAATTGGGGAAGATTGGTGGCCTTCTTCGTGTTTGGGGCAGCACTGTGCGCTGAGTCCGTGAACAAAGAAATGGAACCCCTCGTTGGCCAAGTCCAAGAATGGATGGTGGAATATCTGGAAACACAGTTAGCGGATTGGATTCACTCATCTGGGGGCTGGGCTGAGTTTACAGCACTGTACGGGGACGGTGCCCTAGAGGAGGCCCGAAGACTGAGGGAAGGCAACTGGGCCAGCGTTCGCACGGTGTTGACCGGCGCGGTTGCTTTGGGCGCTTTGGTTACCGTCGGCGCATTCTTCGCCAGTAAA
modifications: V5 tag; Synthetic Bcl-w (C29S/A128E)BH3 mRNA sequence with V5 epitope tag
B4: SQT-Noxa-BH3: mRNA (SEQ ID NO: 52, FLAG) encoding SQT scaffold with Noxa BH3 domain in N-terminus (nucleic acid)
chain: ATGATCCCAAGACCCGCAGAGCTCGAAGTGGAATGCGCTACCCAACTTAGACGGTTCGGAGACAAGCTGAACTTTCGGCAGAAGCTCCTGGGACTCTCAGAAGCGAAGCCTGCCACCCCCGAAATCCAGGAAATCGTCGACAAGGTCAAGCCGCAGCTTGAGGAAAAGACCAACGAGACTTACGGAAAACTGGAGGCCGTGCAGTATAAGACCCAAGTGTTGGCCTCCACCAACTACTACATTAAGGTCCGCGCCGGCGATAACAAGTACATGCACCTGAAGGTGTTCAATGGTCCTCCGGGACAGAACGCGGACAGGGTGCTGACTGGCTACCAAGTGGACAAGAACAAGGACGACGAGCTGACGGGCTTCGACTACAAGGATGATGATGACAAA
modifications: FLAG tag; Synthetic SQT-NoxA-BH3 mRNA sequence with FLAG epitope tag

Tests used:
[1] = tested on: primary mouse hepatocytes; test: Sorafenib combination in primary mouse hepatocytes; assay type: cell-based; settings: SQT-PUMA-BH3 205 pM or 1100 pM, SQT-Bad-BH3 549 pM or 1100 pM, sorafenib 0-10 uM
Protocol: Similar combination experiments were performed with primary mouse hepatocytes, treated with SQT-PUMA-BH3 (205 pM or 1100 pM) or SQT-Bad-BH3 (549 pM or 1100 pM) in combination with sorafenib (0-10 μM). […] Thus, normal primary liver cells are spared by the combination treatment, indicating the combination treatment can selectively kill liver cancer cells over normal liver cells.

primary hepatocytes [2] = test: Apoptosis induction by MC3 LNP-formulated mRNAs in primary hepatocytes cultured in vitro; assay type: cell-based; settings: LNPs
HeLa cells [3] = test: PARP-1 cleavage by SDS-PAGE and Western blotting after transfection of mRNAs encoding SQT-BH3 constructs; assay type: cell-based; settings: 4 hours after transfection
Description: The cleavage of PARP-1 was detected by the appearance of a faster-migrating band and concomitant loss of the full-length band by SDS-PAGE and Western blotting. Western blotting with anti-actin antibodies served as a loading control.

BCL-2 = target: T1, BCL-2 (Homo sapiens, UniProt P10415); test: Co-immunoprecipitation after mRNA transfection; assay type: binding; settings: within two hours after mRNA transfection
T1 construct: endogenous in cells; host or cells: cells transfected with SQT-BH3 mRNA (HeLa by context)

BCL-XL = target: T2, BCL-XL (Homo sapiens, UniProt Q07817); test: Co-immunoprecipitation after mRNA transfection; assay type: binding; settings: within two hours after mRNA transfection
T2 construct: endogenous in cells; host or cells: cells transfected with SQT-BH3 mRNA (HeLa by context)

Hep3B cells [4] = test: Sorafenib combination, YOYO-3 apoptosis on IncuCyte ZOOM; assay type: cell-based
Protocol: To determine the effect of SQT-BH3 constructs in combination with the protein tyrosine kinase inhibitor Sorafenib on liver cells, 20,000 Hep3B cells/well in a 96 well plate were treated with increasing amounts of sorafenib tosylate (Selleck Chemicals) and transfected with LNPs containing SQT-PUMA-BH3 (68 pM) or SQT-Bad-BH3 (550pM).

primary hepatocytes [5] = settings: 10uM sorafenib tosylate, 24 hours after treatment
Protocol: Controls were an empty SQT construct (“SQT-dummy”), a non-targeting siRNA and PBS. For treatment of Hep3B cells, 20,000 Hep3B cells/well per plated in 96-well plates. At Day 1, some wells were transfected with siMCL1 (Dharmacon, ON-TARGETplus Human MCL1 (4170) siRNA-SMARTpool, # L-004501-00-0005) or non-targeting siRNA (ON-TARGETplus Non-targeting Control Pool, # D-001810-10-05). […] 24 hours after treatment, YOYO®-3 iodide (Life Technologies) viability dye was added to each well and cell death was measured on an IncuCyte ZOOM® using YOYO-3 fluorescence as a readout (=“Apoptosis”). For treatment of primary hepatocytes, 18,000 mouse hepatocytes (Gibco) were seeded in each well of a 96-well plate. At Day 1, some wells were transfected with siMCL1 (Dharmacon, SMARTpool: ON-TARGETplus Mc11 siRNA, # L-062229-00-0005) or non-targeting siRNA (ON-TARGETplus Non-targeting Control Pool, # D-001810-10-05). […] 24 hours after treatment, Caspase 3/7 reagent (EssenBio) apoptosis dye was added to each well and cell death was measured on an IncuCyte ZOOM® using the caspase 3/7 reagent fluorescence as a readout (=“Apoptosis”).

Hep3B cells [6] = test: Cell death by YOYO-3 with MC3-formulated LNPs; assay type: cell-based; settings: relatively high concentration
Protocol: The efficacy of mRNAs encoding SQT-BH3 constructs in inducing cell death was tested both in hepatocellular carcinoma cell lines as well as in primary hepatocytes using lipid nanoparticle (LNP)-formulated constructs. Hep3B cells were treated with varying doses (0.78 ng to 50 ng) of MC3-formulated LNPs in the presence of YOYO-3 (Life Technologies), a DNA dye that is taken up preferentially by dead cells that is used to measure the extent of cell death. MC3 lipid nanoparticles included MC3 50%, DSPC 10%, Cholesterol 38.5%, PEG-DMG 1.5%, N:P ˜5.5.

HeLa cells [7] = test: Long-term live cell imaging of GFP-positive cells after mRNA transfection; assay type: cell-based
Hep3B cells [8] = test: SQT-BH3 in combination with siMCL1 or sorafenib, YOYO-3; assay type: cell-based; settings: 10 uM sorafenib tosylate, 24 hours after treatment
Hep3B cells [9] = test: Co-transfection of SQT-Bim-BH3 mRNA with Bcl-2-like Trap mRNAs, % phase confluence; assay type: cell-based
Description: C32, Bcl-xL del.C24, Mcl-1 del.N/C(2010), and Bcl-xL (D61A) del.C24.

MCL-1 = target: T3, MCL-1 (Homo sapiens, UniProt Q07820); test: Co-immunoprecipitation in lysates of transfected HeLa cells; assay type: binding; settings: lysates of HeLa cells transfected with mRNAs
T3 construct: performed in lysates of HeLa cells transfected with mRNAs encoding SQT-BH3 constructs; endogenous in cells; host or cells: HeLa
T3 sequence (Q07820 whole entry): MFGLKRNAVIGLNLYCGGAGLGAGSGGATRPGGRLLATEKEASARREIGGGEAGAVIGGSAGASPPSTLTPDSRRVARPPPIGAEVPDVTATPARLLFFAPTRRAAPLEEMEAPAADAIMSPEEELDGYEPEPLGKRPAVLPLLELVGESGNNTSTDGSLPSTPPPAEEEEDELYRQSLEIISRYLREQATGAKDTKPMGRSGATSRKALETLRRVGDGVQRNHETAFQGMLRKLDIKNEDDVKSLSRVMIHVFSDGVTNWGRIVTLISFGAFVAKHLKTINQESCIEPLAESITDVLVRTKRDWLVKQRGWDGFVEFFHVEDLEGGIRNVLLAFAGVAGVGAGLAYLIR

T1 sequence (P10415 whole entry): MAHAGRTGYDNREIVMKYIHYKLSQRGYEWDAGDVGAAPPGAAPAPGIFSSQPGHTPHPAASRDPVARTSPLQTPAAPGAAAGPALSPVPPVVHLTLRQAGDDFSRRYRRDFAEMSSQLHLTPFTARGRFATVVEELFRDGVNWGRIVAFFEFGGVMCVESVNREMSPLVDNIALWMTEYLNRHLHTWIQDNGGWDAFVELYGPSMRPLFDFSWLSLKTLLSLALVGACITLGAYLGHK
T2 sequence (Q07817 whole entry): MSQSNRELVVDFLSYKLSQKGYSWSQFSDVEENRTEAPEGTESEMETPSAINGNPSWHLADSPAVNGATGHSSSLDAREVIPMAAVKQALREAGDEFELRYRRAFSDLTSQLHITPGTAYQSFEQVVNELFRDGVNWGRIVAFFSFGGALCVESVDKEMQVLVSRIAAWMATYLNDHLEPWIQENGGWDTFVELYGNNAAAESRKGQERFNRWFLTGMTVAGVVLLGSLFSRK

Row | Molecule | PARP-1 cleavage (primary hepatocytes [2]) | PARP-1 cleavage, extent (HeLa cells [3]) | apoptosis and cell death (YOYO-3) (Hep3B cells [6]) | cell-killing activity (HeLa cells [7]) | fate of SQT-BimBH3-transfected cells co-transfected with Trap construct (Hep3B cells [9]) | also measured
1 | B1 | did not | also induced PARP-1 cleavage, although to a lesser extent than SQT-PUMA-BH3 or SQT-Bim-BH3 | behaved similar to the empty MC3 LNP control and mRNAs encoding SQT | did not show cell-killing activity | – | apoptosis in combination with sorafenib [1]: neither SQT-BH3 construct, in combination with sorafenib, caused apoptosis; interaction with BCL-2 by co-immunoprecipitation (BCL-2): also able to co-immunoprecipitate BCL-XL and BCL-2, although to a lesser extent than SQT-PUMA-BH3 and SQT-Bim-BH3; interaction with BCL-XL by co-immunoprecipitation (BCL-XL): also able to co-immunoprecipitate BCL-XL and BCL-2, although to a lesser extent than SQT-PUMA-BH3 and SQT-Bim-BH3; nature of combination effect with sorafenib (Hep3B cells [4]; SQT-PUMA-BH3 68 pM or SQT-Bad-BH3 550pM): synergistic effect; apoptosis (YOYO-3), combination with sorafenib vs sorafenib alone (Hep3B cells [4]; SQT-PUMA-BH3 68 pM or SQT-Bad-BH3 550pM in LNPs, increasing sorafenib tosylate): increased apoptosis of the liver cells as compared to treatment with sorafenib alone; apoptosis (caspase 3/7) in combination with siMCL1, sorafenib or controls (primary hepatocytes [5]): did not lead to increased apoptosis as compared to treatment with the control SQT-dummy construct; apoptosis (YOYO-3) in combination with either siMCL1 or sorafenib (Hep3B cells [8]): led to a marked increase in apoptosis as compared to treatment with the SQT-BH3 construct in combination with non-targeting siRNA or PBS; also recorded: synergistic pro-apoptotic effect
2 | B2 | – | – | – | – | exhibited substantial apoptosis and cell death | –
3 | B3 | – | – | – | – | remained alive | inhibition of SQT-BH3-induced cell death (% phase confluence) (Hep3B cells [9]; co-transfected with SQT-Bim-BH3 mRNA, ratio Trap construct:SQT-BH3 construct 1:2, 24 hour period): most potent inhibitor of SQT-BH3-induced cell death; also recorded: to a substantially greater degree than Bcl-xL (D61A) del.C24 BH3 Trap.cFLAG
4 | B4 | did not | also induced PARP-1 cleavage, although to a lesser extent than SQT-PUMA-BH3 or SQT-Bim-BH3 | behaved similar to the empty MC3 LNP control and mRNAs encoding SQT | did not show cell-killing activity | – | co-immunoprecipitation of MCL-1 (MCL-1): able to co-immunoprecipitate
